Laboratory results published in US20220119536A1 (Boehringer Ingelheim, published 2022).
Several values for one entry are separate records, joined by “and”; a condition that tells them apart may be missing. Equal entries are not always repeated. Where two headings read alike, the source gives them in different places.

B1: TPP-11736 (bispecific antibody, human IgG1, kappa, L234A L235A)
light: DIQMTQSPSSLSASVGDRVTITCRTSENVYSNLAWYQQKPGKAPKLLIYAASNLQSGVPSRFSGSGSGTDYTFTISSLQPEDIATYYCQHFWGSPFTFGQGTKLEIKRTVAAPSVFIFPPSDEQLKSGTASVVCLLNNFYPREAKVQWKVDNALQSGNSQESVTEQDSKDSTYSLSSTLTLSKADYEKHKVYACEVTHQGLSSPVTKSFNRGEC
heavy: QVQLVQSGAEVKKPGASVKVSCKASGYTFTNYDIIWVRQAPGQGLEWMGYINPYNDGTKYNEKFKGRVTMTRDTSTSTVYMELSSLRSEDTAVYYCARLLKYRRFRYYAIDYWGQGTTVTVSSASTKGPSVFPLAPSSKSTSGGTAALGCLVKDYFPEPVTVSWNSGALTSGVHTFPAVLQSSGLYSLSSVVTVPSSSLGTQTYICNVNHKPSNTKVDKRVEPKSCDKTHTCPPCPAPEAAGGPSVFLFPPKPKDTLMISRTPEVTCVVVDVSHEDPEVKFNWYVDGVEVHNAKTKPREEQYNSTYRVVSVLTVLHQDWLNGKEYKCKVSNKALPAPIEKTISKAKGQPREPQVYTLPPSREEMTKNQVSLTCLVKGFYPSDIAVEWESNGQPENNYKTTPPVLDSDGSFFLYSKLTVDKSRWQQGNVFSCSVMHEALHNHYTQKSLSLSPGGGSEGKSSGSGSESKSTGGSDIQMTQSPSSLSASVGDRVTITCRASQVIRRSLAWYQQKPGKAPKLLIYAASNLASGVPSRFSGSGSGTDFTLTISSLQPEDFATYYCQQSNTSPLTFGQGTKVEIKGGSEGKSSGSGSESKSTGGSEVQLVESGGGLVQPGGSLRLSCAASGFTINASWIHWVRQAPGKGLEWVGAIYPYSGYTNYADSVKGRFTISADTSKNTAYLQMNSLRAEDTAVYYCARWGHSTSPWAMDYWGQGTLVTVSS
B2: TPP-14938 (bispecific antibody, human IgG1, kappa, L234A L235A)
light: DIQMTQSPSSLSASVGDRVTITCRASQVIRRSLAWYQQKPGKAPKLLIYAASNLASGVPSRFSGSGSGTDFTLTISSLQPEDFATYYCQQSNTSPLTFGQGTKVEIKRTVAAPSVFIFPPSDEQLKSGTASVVCLLNNFYPREAKVQWKVDNALQSGNSQESVTEQDSKDSTYSLSSTLTLSKADYEKHKVYACEVTHQGLSSPVTKSFNRGEC
heavy: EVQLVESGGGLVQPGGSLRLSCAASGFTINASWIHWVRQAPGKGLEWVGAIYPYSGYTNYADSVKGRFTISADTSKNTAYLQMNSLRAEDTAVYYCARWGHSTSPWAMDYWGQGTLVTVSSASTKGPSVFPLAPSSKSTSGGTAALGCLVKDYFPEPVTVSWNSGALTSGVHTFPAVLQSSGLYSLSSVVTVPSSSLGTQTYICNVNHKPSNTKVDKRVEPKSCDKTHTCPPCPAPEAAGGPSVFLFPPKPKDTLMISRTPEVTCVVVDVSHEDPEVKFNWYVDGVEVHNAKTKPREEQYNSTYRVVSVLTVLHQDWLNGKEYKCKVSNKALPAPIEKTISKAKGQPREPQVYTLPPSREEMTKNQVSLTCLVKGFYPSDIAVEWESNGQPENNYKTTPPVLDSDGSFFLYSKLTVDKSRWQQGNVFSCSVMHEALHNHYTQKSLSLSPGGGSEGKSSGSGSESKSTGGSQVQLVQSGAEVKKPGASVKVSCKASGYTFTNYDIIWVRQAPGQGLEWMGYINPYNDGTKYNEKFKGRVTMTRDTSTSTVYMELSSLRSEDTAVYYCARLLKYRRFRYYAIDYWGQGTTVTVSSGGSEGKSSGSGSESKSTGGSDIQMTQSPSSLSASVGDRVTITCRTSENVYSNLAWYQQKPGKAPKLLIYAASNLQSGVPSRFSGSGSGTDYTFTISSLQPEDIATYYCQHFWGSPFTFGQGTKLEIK
B3: TPP-14939 (bispecific antibody, human IgG1, kappa, L234A L235A)
light: B2 light
heavy: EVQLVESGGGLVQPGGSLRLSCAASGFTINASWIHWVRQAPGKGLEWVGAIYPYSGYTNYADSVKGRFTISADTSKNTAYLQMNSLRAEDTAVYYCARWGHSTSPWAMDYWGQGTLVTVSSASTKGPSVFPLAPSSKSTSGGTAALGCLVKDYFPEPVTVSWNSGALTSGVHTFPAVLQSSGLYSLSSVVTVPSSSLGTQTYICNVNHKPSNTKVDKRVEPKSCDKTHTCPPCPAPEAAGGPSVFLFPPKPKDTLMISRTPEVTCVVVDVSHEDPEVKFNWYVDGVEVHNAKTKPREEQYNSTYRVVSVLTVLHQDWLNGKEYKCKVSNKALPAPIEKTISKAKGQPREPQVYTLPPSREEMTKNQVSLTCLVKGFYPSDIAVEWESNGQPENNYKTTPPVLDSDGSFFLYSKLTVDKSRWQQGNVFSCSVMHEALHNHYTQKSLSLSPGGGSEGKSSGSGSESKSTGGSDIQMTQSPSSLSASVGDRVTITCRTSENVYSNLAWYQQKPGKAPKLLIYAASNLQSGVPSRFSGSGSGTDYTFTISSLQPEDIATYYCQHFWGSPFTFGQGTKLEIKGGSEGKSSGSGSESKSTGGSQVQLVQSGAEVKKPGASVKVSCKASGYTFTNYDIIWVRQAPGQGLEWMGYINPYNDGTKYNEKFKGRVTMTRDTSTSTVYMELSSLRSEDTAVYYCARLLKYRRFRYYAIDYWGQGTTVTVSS
B4: TPP-14936 (bispecific antibody, human IgG1, kappa, L234A L235A)
light: B1 light
heavy: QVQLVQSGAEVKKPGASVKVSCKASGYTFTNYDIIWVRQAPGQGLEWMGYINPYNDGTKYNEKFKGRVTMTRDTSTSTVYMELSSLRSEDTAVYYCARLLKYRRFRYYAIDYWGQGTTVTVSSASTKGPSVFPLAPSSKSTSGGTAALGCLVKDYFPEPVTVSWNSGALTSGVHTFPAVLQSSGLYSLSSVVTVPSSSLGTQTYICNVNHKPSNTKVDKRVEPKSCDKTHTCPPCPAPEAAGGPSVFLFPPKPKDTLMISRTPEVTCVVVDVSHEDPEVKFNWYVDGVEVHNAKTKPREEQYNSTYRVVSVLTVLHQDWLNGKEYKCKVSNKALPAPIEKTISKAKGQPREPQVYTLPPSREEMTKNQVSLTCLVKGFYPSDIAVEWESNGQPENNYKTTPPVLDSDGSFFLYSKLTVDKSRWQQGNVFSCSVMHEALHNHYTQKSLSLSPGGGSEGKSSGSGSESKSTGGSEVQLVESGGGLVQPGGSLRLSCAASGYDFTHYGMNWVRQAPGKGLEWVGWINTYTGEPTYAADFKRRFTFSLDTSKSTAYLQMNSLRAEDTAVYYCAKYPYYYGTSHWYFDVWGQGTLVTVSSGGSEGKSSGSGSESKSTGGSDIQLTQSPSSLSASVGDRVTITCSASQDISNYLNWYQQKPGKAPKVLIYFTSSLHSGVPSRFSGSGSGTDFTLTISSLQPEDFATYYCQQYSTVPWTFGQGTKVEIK
B5: TPP-14937 (bispecific antibody, human IgG1, kappa, L234A L235A)
light: B1 light
heavy: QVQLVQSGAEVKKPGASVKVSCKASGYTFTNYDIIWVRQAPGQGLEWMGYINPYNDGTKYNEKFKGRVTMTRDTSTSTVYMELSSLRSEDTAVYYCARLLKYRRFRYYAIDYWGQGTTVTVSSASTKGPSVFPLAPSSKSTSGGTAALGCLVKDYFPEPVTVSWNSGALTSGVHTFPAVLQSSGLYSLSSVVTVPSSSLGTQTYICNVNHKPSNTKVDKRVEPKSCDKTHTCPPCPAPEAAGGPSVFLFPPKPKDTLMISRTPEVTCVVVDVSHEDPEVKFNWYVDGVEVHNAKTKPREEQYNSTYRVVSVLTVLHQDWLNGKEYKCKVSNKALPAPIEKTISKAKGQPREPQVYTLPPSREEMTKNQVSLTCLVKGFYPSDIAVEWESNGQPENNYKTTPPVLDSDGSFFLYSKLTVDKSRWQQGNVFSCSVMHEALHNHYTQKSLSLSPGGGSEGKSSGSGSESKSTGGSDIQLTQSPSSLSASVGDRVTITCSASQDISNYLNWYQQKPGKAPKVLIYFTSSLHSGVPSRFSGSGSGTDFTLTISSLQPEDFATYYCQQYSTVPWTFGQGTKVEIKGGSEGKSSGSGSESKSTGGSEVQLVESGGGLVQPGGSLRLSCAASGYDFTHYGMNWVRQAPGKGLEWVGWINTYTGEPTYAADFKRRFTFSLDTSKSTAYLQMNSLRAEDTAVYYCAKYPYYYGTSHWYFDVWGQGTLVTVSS
B6: human BDNF (ligand, UniProt P23560 129-247, looked up)
chain: HSDPARRGELSVCDSISEWVTAADKKTAVDMSGGTVTVLEKVPVSKGQLKQYFYETKCNPMGYTKEGCRGIDKRHWNSQCRTTQSYVRALTMDSKKRIGWRFIRIDTSCVCTLTIKRGR
B7: TPP-11738 (bispecific antibody, human IgG1, kappa, L234A L235A)
light: B1 light
heavy: not shown
B8: TPP-13788 (B20 IgG) (antibody, V domains shown)
VH: EVQLVESGGGLVQPGGSLRLSCAASGFTINASWIHWVRQAPGKGLEWVGAIYPYSGYTNYADSVKGRFTISADTSKNTAYLQMNSLRAEDTAVYYCARWGHSTSPWAMDYWGQGTLVTVSS
VL: DIQMTQSPSSLSASVGDRVTITCRASQVIRRSLAWYQQKPGKAPKLLIYAASNLASGVPSRFSGSGSGTDFTLTISSLQPEDFATYYCQQSNTSPLTFGQGTKVEIK

Columns and labels:
Test in all cases: cell-based or functional assay
human VEGF-A [1] = molecular target: T1, human VEGF-A (human, UniProt P15692-4 27-191)
human VEGF-A [2] = molecular target: T1, human VEGF-A; remark: listed apart in the source
human VEGF-A [3] = molecular target: T1, human VEGF-A; remark: listed apart in the source
human VEGF-A [4] = molecular target: T1, human VEGF-A; remark: listed apart in the source
human VEGF-A [5] = molecular target: T1, human VEGF-A; remark: listed apart in the source
human VEGF-A [6] = molecular target: T1, human VEGF-A; remark: listed apart in the source
human TrkB receptor [7] = molecular target: T2, human TrkB receptor (human, UniProt Q16620 32-822)
human TrkB receptor [8] = molecular target: T2, human TrkB receptor; remark: listed apart in the source

T1 sequence (P15692 other isoform, or with tags, fused parts or gaps limits assumed): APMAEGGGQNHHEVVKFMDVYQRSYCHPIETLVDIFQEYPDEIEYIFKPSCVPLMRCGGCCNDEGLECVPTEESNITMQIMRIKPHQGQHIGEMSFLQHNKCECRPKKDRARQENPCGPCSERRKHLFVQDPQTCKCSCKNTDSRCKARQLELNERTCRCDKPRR
T2 sequence (Q16620 32-822): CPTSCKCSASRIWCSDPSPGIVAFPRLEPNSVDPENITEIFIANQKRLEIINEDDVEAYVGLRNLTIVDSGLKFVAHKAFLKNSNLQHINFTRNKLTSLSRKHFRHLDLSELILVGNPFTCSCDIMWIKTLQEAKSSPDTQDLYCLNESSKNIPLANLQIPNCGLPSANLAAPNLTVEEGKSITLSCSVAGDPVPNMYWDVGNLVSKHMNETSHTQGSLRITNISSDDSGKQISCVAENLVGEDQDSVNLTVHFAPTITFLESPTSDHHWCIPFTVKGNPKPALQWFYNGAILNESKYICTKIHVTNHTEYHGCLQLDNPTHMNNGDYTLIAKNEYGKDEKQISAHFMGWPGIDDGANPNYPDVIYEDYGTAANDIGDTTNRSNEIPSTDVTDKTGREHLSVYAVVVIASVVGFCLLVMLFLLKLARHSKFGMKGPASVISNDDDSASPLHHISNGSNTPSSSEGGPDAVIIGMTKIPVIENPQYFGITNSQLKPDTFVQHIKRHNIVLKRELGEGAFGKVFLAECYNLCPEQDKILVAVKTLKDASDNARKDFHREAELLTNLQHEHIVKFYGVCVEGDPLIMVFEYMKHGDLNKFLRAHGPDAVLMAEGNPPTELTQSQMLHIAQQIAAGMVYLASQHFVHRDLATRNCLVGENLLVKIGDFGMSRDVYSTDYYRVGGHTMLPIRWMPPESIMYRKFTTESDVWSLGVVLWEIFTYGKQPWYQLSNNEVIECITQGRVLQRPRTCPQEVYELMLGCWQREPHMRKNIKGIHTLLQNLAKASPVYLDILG

Binder | Bottom plateau (ERK1/2 phosphorylation, counts) (human VEGF-A [2]) | Bottom plateau (Src phosphorylation, counts) (human VEGF-A [2]) | IC50 (ERK1/2 phosphorylation) (human VEGF-A [2]) | IC50 (Src phosphorylation) (human VEGF-A [2]) | Bottom plateau (ERK1/2 phosphorylation, counts) (human VEGF-A [3]) | Bottom plateau (Src phosphorylation, counts) (human VEGF-A [3]) | IC50 (ERK1/2 phosphorylation) (human VEGF-A [3]) | IC50 (Src phosphorylation) (human VEGF-A [3]) | Bottom plateau (ERK1/2 phosphorylation, counts) (human VEGF-A [4]) | Bottom plateau (Src phosphorylation, counts) (human VEGF-A [4]) | IC50 (ERK1/2 phosphorylation) (human VEGF-A [4]) | IC50 (Src phosphorylation) (human VEGF-A [4]) | Bottom plateau (ERK1/2 phosphorylation, counts) (human VEGF-A [6]) | Bottom plateau (Src phosphorylation, counts) (human VEGF-A [6]) | IC50 (ERK1/2 phosphorylation) (human VEGF-A [6]) | IC50 (Src phosphorylation) (human VEGF-A [6]) | concentration for full inhibition of VEGF-induced HRMEC proliferation (human VEGF-A [5]) | other results
B1 | 3690 counts | 6300 counts | 5.59 nM | 3.97 nM | 3690 counts | 6300 counts | 5.59 nM | 3.97 nM | 3690 counts | 6300 counts | 5.59 nM | 3.97 nM | 3690 counts | 6300 counts | 5.6 nM | 4 nM |  | IC50 (ERK1/2 phosphorylation) (human VEGF-A [1]): 9.1 nM; IC50 (p38 MAPK phosphorylation) (human VEGF-A [1]): 7.7 nM; IC50, inhibition of VEGF-induced ERK1/2 phosphorylation (human VEGF-A [5]): ~4 nM and ~10 nM; IC50, inhibition of VEGF-induced p38 MAPK phosphorylation (human VEGF-A [5]): ~7.4 nM
B2 | 1330 counts | 5480 counts | 2.71 nM | 1.8 nM |  |  |  |  | 1330 counts | 5480 counts | 2.71 nM | 1.8 nM |  |  |  |  | > 16 nM | 
B3 | 1140 counts | 5540 counts | 2.51 nM | 1.16 nM |  |  |  |  | 1140 counts | 5540 counts | 2.51 nM | 1.16 nM |  |  |  |  | > 16 nM | 
B4 |  |  |  |  | -340 counts | 4650 counts | 3.49 nM | 3.4 nM |  |  |  |  | -341 counts | 4650 counts | 3.5 nM | 3.4 nM | 1 nM | 
B5 |  |  |  |  | -926 counts | 4570 counts | 5.58 nM | 5.83 nM |  |  |  |  | -927 counts | 4570 counts | 5.6 nM | 5.8 nM | 4 nM | 
B6 |  |  |  |  |  |  |  |  |  |  |  |  |  |  |  |  |  | EC50 (pERK) (human TrkB receptor [7]): 0.282 nM; EC50 (pTrkB) (human TrkB receptor [7]): 1.28 nM; EC50 (pERK) (human TrkB receptor [8]): 0.507 nM; EC50 (pTrkB) (human TrkB receptor [8]): 1.22 nM
B7 |  |  |  |  |  |  |  |  |  |  |  |  |  |  |  |  |  | IC50, inhibition of VEGF-induced ERK1/2 phosphorylation (human VEGF-A [5]): ~4 nM and ~10 nM
B8 |  |  |  |  |  |  |  |  |  |  |  |  |  |  |  |  |  | IC50 (ERK1/2 phosphorylation) (human VEGF-A [1]): 3 nM; IC50 (p38 MAPK phosphorylation) (human VEGF-A [1]): 2.4 nM; fold increase of VEGF-A scavenging potency vs. TPP-11736 (human VEGF-A [5]): ~3 fold
